What was measured:
αβ-tubulin hetero-dimers = αβ-tubulin hetero-dimers (UniProt P02554 1-445); assay: SEC; Superdex-200 Increase 3.2/300; 26 µM NuMA^2002–2115 and 20 µM αβ-tubulin hetero-dimers; GT buffer (80 mM PIPES pH 6.8, 1 mM MgCl2, 1 mM EGTA) with 60 mM NaCl and 1 mM DTT; Tris-Tricine-SDS-PAGE; conditions: both partners purified
[1] = target: the molecule itself; assay: SEC-MALS; static light scattering (SLS) on a Viscotek GPCmax/TDA with two TSKgel G3000PWxl columns in series; 75 μl of purified sample at about 1.5–2 mg/ml
[2] = target: LGN^TPR-ΔOLIGO (LGN^13–350) (human); assay: as above
LGN^7–367 (human) = target: T1, LGN^7–367 (human); assay: as above
T1 sequence (P81274 whole entry, looked up): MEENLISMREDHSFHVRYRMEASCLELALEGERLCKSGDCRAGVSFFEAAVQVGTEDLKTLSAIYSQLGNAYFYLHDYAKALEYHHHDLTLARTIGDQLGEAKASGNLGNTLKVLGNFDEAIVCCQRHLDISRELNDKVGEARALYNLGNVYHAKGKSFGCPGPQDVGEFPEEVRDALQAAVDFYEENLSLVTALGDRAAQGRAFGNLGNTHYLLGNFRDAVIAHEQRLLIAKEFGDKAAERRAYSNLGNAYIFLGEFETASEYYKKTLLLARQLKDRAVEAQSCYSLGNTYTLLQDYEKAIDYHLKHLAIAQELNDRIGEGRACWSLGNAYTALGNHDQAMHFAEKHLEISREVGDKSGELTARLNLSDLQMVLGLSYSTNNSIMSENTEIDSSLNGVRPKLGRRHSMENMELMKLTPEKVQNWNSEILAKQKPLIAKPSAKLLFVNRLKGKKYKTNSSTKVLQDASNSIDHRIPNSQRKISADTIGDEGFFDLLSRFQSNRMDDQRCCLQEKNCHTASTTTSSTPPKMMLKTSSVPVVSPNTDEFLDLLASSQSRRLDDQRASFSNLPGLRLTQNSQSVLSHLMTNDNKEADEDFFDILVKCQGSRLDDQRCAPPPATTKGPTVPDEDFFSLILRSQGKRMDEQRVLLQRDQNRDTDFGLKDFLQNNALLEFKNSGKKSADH

LGN^1–350 (human) = target: T2, LGN^1–350 (human); assay: SEC + SEC-MALS; SEC and SLS assays on a battery of truncated LGN and NuMA mutants (Fig. 1c, d)
T2 sequence (P81274 whole entry, looked up): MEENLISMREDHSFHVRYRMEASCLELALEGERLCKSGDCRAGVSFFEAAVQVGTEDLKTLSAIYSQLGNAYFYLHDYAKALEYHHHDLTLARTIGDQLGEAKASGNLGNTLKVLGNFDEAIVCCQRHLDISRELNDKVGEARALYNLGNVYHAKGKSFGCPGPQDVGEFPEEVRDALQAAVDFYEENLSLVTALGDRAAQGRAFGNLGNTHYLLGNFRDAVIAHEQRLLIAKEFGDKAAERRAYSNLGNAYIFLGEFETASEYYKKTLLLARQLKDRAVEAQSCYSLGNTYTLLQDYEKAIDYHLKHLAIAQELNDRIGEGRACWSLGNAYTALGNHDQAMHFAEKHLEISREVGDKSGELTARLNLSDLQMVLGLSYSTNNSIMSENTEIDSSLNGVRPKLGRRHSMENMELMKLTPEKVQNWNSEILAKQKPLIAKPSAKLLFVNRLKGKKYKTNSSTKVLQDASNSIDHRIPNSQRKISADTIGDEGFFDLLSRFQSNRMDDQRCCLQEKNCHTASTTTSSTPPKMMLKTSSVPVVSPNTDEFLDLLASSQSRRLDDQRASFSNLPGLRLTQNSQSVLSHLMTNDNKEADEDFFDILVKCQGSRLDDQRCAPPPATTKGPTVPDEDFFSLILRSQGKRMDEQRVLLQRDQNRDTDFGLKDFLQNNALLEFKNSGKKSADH

LGN^13–409 (human) = target: T3, LGN^13–409 (human); assay: as above
T3 sequence (P81274 whole entry, looked up): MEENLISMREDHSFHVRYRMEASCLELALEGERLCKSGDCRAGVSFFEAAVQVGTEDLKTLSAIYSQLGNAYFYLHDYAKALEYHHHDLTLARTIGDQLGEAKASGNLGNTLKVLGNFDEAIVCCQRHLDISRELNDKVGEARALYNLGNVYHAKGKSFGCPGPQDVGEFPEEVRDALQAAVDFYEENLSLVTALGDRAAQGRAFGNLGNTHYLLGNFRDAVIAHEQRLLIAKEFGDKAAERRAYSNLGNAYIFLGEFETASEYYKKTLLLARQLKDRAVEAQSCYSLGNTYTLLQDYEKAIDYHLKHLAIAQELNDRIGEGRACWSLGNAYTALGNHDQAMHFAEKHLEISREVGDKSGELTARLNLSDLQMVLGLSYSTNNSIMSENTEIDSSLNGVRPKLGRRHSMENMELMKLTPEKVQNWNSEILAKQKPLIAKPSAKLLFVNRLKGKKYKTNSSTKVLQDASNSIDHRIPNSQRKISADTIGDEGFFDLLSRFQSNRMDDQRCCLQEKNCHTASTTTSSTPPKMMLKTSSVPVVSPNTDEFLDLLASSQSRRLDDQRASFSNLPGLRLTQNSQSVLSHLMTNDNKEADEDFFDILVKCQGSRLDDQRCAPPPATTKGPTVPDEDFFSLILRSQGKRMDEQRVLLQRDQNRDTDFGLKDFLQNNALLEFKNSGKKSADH

[3] = target: T4, LGN^1–409 (TPR domain of LGN) (human); assay: SEC; analytical SEC, Superdex-200 Increase 3.2/300; LGN and NuMA variants mixed in equimolar amounts (20 μM; LGN^TPR:NuMA^PEPT 1:2); 20 mM Tris-HCl pH 8.0, 0.150 M NaCl, 5% glycerol, 1 mM DTT; fractions checked by SDS-PAGE
T4 sequence (P81274 whole entry, looked up): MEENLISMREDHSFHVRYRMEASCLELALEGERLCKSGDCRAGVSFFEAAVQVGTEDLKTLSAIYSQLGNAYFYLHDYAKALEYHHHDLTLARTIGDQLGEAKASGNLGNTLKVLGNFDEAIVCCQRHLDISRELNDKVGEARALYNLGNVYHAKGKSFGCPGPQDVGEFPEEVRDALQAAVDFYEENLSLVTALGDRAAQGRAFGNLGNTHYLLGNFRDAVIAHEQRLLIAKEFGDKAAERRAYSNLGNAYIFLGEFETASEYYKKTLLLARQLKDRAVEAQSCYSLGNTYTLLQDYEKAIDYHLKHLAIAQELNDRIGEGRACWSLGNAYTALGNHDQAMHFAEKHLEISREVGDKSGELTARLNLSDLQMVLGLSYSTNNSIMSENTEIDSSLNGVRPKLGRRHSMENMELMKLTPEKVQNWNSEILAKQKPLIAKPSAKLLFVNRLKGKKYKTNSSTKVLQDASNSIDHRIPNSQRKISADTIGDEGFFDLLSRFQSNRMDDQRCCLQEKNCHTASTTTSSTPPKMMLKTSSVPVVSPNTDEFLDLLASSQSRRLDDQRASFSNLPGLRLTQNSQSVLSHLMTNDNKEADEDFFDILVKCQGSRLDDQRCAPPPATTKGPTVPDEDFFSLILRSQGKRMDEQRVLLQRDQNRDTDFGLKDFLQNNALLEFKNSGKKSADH

Chain of αβ-tubulin hetero-dimers (P68363 whole entry, chain 1 of 2): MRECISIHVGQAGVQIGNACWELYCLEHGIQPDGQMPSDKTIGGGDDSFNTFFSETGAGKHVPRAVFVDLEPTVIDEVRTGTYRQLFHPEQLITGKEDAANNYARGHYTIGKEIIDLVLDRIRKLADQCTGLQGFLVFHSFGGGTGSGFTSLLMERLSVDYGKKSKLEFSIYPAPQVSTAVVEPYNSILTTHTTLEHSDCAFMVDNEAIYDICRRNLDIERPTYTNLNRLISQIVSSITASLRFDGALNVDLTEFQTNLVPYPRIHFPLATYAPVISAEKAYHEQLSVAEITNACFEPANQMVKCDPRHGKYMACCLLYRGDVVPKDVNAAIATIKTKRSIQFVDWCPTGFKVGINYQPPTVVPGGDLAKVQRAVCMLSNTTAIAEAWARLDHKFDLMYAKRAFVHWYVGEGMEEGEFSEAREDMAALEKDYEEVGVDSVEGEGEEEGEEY
Chain of αβ-tubulin hetero-dimers (P02554 whole entry, chain 2 of 2): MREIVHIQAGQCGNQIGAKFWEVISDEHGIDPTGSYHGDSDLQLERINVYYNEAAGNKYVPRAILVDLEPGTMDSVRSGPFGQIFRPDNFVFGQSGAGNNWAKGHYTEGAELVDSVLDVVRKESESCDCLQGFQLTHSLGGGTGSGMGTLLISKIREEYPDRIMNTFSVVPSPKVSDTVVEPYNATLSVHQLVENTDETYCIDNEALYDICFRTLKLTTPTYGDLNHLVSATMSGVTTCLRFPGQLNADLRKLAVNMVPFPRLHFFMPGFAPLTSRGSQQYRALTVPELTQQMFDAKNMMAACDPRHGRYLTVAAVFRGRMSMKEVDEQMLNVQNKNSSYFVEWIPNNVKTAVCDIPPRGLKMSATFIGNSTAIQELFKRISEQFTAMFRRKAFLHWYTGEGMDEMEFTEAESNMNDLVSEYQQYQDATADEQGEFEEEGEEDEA

B1: NuMA^2002–2115 (domain or fragment, human, UniProt Q14980 2002-2115, looked up)
chain: ESKKATSCFPRPMTPRDRHEGRKQSTTEAQKKAAPASTKQADRRQSMAFSILNTPKKLGNSLLRRGASKKALSKASPNTRSGTRRSPRIATTTASAATAAAIGATPRAKGKAKH
stoichiometry N (αβ-tubulin hetero-dimers): 1

B2: NuMA^1592–1694 (domain or fragment, human, UniProt Q14980 1592-1694, looked up)
chain: QLNELQAQLSQKEQAAEHYKLQMEKAKTHYDAKKQQNQELQEQLRSLEQLQKENKELRAEAERLGHELQQAGLKTKEAEQTCRHLTAQVRSLEAQVAHADQQL
notes: NuMA, human, residues 1592-1694 (C-terminal portion of the coiled coil); also called C-terminal part of the NuMA coiled-coil
stoichiometry N [1]: 2

B3: NuMA chimera (NuMA 1592–1694 joined to NuMA 1821–2001 by eight Thr-Gly-Ser repeats) (domain or fragment, human)
chain: QLNELQAQLSQKEQAAEHYKLQMEKAKTHYDAKKQQNQELQEQLRSLEQLQKENKELRAEAERLGHELQQAGLKTKEAEQTCRHLTAQVRSLEAQVAHADQQLTGSTGSTGSTGSTGSTGSTGSTGSKKLDVEEPDSANSSFYSTRSAPASQASLRATSSTQSLARLGSPDYGNSALLSLPGYRPTTRSSARRSQAGVSSGAPPGRNSFYMGTCQDEPEQLDDWNRIAELQQRNRVCPPHLKTCYPLESRPSLSLGTITDEEMKTGDPQETLRRASMQPIQIAEGTGITTRQQRKRVSLEPHQGPGTP
notes: NuMA, human, residues 1592-1694 (dimerizing coiled-coil); also called chimeric NuMA construct; source: E. coli BL21 Rosetta, purified (Ni HiTrap chelating, PreScission cleavage, Resource-Q, Superose-6)
stoichiometry N [2]: 1 | stoichiometry N [1]: 2

B4: NuMA^1861–1928 (domain or fragment)
chain: GSPDYGNSALLSLPGYRPTTRSSARRSQAGVSSGAPPGRNSFYMGTCQDEPEQLDDWNRIAELQQRNR
stoichiometry N (LGN^7–367 (human)): 1 | stoichiometry N (LGN^1–350 (human)): 1 | stoichiometry N (LGN^13–409 (human)): 1

NSFYMGTCQDEPEQLDDWNRIAELQQRNR [NuMA^1900–1928]
stoichiometry N [3]: 1

— publication PMC6525239, “Hexameric NuMA:LGN structures promote multivalent interactions required for planar epithelial divisions” (Nature Communications, 2019)
